Where a chain is given by its changes, count along the chain named.

Common to all, as to test: MST
The target in data set [1] is T1, DDX21 m4 (Homo sapiens, UniProt Q9NR30 1-783, P754Y;R755E;Q757I;R758Q).
T1 sequence: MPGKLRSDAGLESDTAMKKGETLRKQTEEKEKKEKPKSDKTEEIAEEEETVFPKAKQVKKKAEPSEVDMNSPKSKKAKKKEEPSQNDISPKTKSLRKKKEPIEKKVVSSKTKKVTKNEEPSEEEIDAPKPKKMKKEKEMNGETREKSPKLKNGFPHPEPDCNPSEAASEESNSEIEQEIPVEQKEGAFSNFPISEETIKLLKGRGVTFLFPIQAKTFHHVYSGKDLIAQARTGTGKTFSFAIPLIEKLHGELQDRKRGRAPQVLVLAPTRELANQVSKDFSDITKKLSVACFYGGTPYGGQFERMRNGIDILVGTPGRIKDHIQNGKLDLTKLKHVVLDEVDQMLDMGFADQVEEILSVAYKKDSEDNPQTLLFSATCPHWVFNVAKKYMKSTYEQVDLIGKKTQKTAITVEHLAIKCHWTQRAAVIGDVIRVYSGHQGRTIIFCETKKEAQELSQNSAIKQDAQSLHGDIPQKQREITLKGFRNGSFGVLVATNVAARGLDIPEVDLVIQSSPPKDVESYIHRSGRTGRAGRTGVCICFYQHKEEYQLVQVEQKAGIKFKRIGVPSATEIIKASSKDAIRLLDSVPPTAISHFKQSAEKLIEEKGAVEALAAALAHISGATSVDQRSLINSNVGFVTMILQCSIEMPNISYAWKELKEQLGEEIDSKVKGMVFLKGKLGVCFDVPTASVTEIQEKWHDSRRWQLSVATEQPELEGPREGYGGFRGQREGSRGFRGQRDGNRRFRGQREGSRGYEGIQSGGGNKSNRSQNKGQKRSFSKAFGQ

For data set [2], the target named is T2, DDX21 full length (1-783) (Homo sapiens, UniProt Q9NR30 1-783).
T2 sequence: T1 sequence with Y754P, E755R, I757Q, Q758R

Data set [3] deals with T3, DDX21(574-783) (Homo sapiens, UniProt Q9NR30 574-783).
T3 sequence: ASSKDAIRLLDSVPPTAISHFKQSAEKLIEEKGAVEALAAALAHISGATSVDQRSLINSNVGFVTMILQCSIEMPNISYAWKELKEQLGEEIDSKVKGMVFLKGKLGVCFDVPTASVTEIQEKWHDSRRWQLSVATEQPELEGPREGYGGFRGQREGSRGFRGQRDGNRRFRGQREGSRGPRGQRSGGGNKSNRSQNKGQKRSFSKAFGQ

The target in data set [4] is T3, DDX21(574-783). The source holds these as a separate data set.

B1: hTR(10-43) (structured_RNA)
RNA: AGGGUGGGCCUGGGAGGGGUGGUGGCCAU
Regarding B1, the binding result in data set [1] is “no binding”. For the same molecule, the Kd (in general, the free concentration of one partner at which half of the binding sites on the other are occupied at equilibrium, for simple one-to-one binding) in data set [2] is 324 ± 7 nM; in data set [3], 149 ± 10 nM.

B2: Q2-mutant (ssRNA)
RNA: GUUGCGCCGCGCGUUGCGUUUGCGCGCACG
Consider B2, for which the binding result in data set [1] and in data set [2] was “no binding” throughout. For the same molecule, in data set [4], the binding signal was ~1000 fold less affinity than Q2 wild type.

B3: Q2 (structured_RNA)
RNA: GUUGGGGCGGGCGUUGGGUUUGGGGGGACG
B3: in data set [2], binding was characterised by a dissociation constant (Kd) of 10 ± 0.7 nM.
